Measured values reported in patent US7205275 (dated 2007).
Primed or numbered codes have the meaning given here. Where no end group is shown, it is not given here. [ ]: non-standard residue; d: D form. Fc(4) = non-antigen-binding fragment of an antibody (from proteolytic digestion of a whole antibody); Fc = immunoglobulin Fc domain fused to the peptide (peptibody); Fc(7) = Fc domain, peptide fused N- or C-terminal to it

T1: human Ang-2 (human, UniProt O15123)
T1 chain: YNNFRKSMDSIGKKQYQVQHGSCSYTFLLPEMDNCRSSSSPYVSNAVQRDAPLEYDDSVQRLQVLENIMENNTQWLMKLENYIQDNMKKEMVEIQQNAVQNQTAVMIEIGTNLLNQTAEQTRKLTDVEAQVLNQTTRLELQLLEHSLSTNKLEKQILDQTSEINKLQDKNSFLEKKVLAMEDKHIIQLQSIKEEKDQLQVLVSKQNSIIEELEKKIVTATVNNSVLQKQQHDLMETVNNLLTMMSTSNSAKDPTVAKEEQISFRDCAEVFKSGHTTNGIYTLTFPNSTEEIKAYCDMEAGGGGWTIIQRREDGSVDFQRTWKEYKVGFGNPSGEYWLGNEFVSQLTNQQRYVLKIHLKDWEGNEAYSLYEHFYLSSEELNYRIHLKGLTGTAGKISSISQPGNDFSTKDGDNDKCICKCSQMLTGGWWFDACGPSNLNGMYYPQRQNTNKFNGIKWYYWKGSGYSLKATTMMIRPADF

B1: Con4-32 (C) (peptide)
chain: M[Fc]GGGGGAQKSTQDDCDWDPWTCEHMVGPLE
modifications: not fully specified; cysteine pairing not given here
B2: Con4-12 (C) (peptide)
chain: M[Fc(7)]GGGGGAQTQLVSLCEWDPWTCRLLDGWLE
modifications: not fully specified (bridges); cysteine pairing not given here
B3: Con4-27 (C) (peptide)
chain: M[Fc(7)]GGGGGAQTWPQDKCEWDPWTCEHMGSTLE
modifications: not fully specified (bridges); cysteine pairing not given here
B4: Con4-29 (C) (peptide)
chain: M[Fc(7)]GGGGGAQRTTQEKCEWDPWTCEHMESQLE
modifications: not fully specified (bridges); cysteine pairing not given here
B5: Con4-18 (C) (peptide)
chain: M[Fc(7)]GGGGGAQWVNEVVCEWDPWTCNHWDTPLE
modifications: not fully specified (bridges); cysteine pairing not given here
B6: Con4-1 (C) (peptide)
chain: M[Fc(7)]GGGGGAQVLGGQGCQWDPWTCSHLEDGLE
modifications: not fully specified (bridges); cysteine pairing not given here
B7: Con4-C5 (C) (peptide)
chain: M[Fc(4)]GGGGGAQAATQEECEWDPWTCEHMPRSLE
modifications: not fully specified (bridges); cysteine pairing not given here
B8: AC1-Con4 (C) (peptide)
chain: M[Fc(7)]GGGGGAQTWPQDKCEWDPWTCRLLQGWLE
modifications: not fully specified (bridges); cysteine pairing not given here
B9: Con4-3 (C) (peptide)
chain: M[Fc(7)]GGGGGAQDKILEECQWDPWTCQFFYGALE
modifications: not fully specified (bridges); cysteine pairing not given here
B10: Con4-11 (C) (peptide)
chain: M[Fc(7)]GGGGGAQQGMKMFCEWDPWTCAHIVYRLE
modifications: not fully specified (bridges); cysteine pairing not given here
B11: Con4-15 (C) (peptide)
chain: M[Fc(7)]GGGGGAQQWSWPPCEWDPWTCQTVWPSLE
modifications: not fully specified (bridges); cysteine pairing not given here
B12: Con4-34 (C) (peptide)
chain: M[Fc]GGGGGAQVKTQEHCDWDPWTCEHMREWLE
modifications: not fully specified; cysteine pairing not given here
B13: Con4-6 (C) (peptide)
chain: M[Fc(4)]GGGGGAQWPQTEGCQWDPWTCRLLHGWLE
modifications: not fully specified; cysteine pairing not given here
B14: Con4-49 (C) (peptide)
chain: M[Fc(4)]GGGGGAQWAAQEECEWDPWTCEHMGRMLE
modifications: not fully specified; cysteine pairing not given here
B15: Con4-2 (C) (peptide)
chain: M[Fc(7)]GGGGGAQFGWSHGCEWDPWTCRLLQGWLE
modifications: not fully specified (bridges); cysteine pairing not given here
B16: Con4-22 (C) (peptide)
chain: M[Fc(7)]GGGGGAQVWRSQVCQWDPWTCNLGGDWLE
modifications: not fully specified (bridges); cysteine pairing not given here
B17: Con4-7 (C) (peptide)
chain: M[Fc(4)]GGGGGAQLWQLAVCQWDPQTCDHMGALLE
modifications: not fully specified; cysteine pairing not given here
B18: Con4-19 (C) (peptide)
chain: M[Fc(7)]GGGGGAQVVQVGMCQWDPWTCKHMRLQLE
modifications: not fully specified (bridges); cysteine pairing not given here
B19: AC3-Con4 (C) (peptide)
chain: M[Fc(7)]GGGGGAQDKILEECEWDPWTCRLLQGWLE
modifications: not fully specified (bridges); cysteine pairing not given here
B20: Con4-C2 (C) (peptide)
chain: M[Fc(4)]GGGGGAQTTIGSMCQWDPWTCAHMQGGLE
modifications: not fully specified (bridges); cysteine pairing not given here
B21: Con4-24 (C) (peptide)
chain: M[Fc(7)]GGGGGAQPDTRQGCQWDPWTCRLYGMWLE
modifications: not fully specified (bridges); cysteine pairing not given here
B22: Con4-4 (C) (peptide)
chain: M[Fc]GGGGGAQWYEQDACEWDPWTCEHMAEVLE
modifications: not fully specified; cysteine pairing not given here
B23: Con4-30 (C) (peptide)
chain: M[Fc(7)]GGGGGAQGPAQEECEWDPWTCEPLPLMLE
modifications: not fully specified (bridges); cysteine pairing not given here
B24: Con4-9 (C) (peptide)
chain: M[Fc(4)]GGGGGAQGTSPSFCQWDPWTCSHMVQGLE
modifications: not fully specified; cysteine pairing not given here
B25: Con4-33 (C) (peptide)
chain: M[Fc]GGGGGAQPMNQVECDWDPWTCEHMPRSLE
modifications: not fully specified; cysteine pairing not given here
B26: Con4-5 (C) (peptide)
chain: M[Fc(4)]GGGGGAQATFARQCQWDPWTCALGGNWLE
modifications: not fully specified; cysteine pairing not given here
B27: Con4-28 (C) (peptide)
chain: M[Fc(7)]GGGGGAQAWGQEGCDWDPWTCEHMLPMLE
modifications: not fully specified (bridges); cysteine pairing not given here
B28: Con4-48 (C) (peptide)
chain: M[Fc(4)]GGGGGAQGHSQEECGWDPWTCEHMGTSLE
modifications: not fully specified; cysteine pairing not given here
B29: Con4-50 (C) (peptide)
chain: M[Fc(4)]GGGGGAQHGQNMECEWDPWTCEHMFRYLE
modifications: not fully specified; cysteine pairing not given here
B30: Con4-8 (C) (peptide)
chain: M[Fc(4)]GGGGGAQSTIGDMCEWDPWTCAHMQVDLE
modifications: not fully specified; cysteine pairing not given here
B31: AC5-Con4 (C) (peptide)
chain: M[Fc(7)]GGGGGAQAATQEECEWDPWTCRLLQGWLE
modifications: not fully specified (bridges); cysteine pairing not given here
B32: Con4-35 (C) (peptide)
chain: M[Fc]GGGGGAQVPRQKDCEWDPWTCEHMYVGLE
modifications: not fully specified; cysteine pairing not given here
B33: Con4-41 (C) (peptide)
chain: M[Fc(4)]GGGGGAQNVRQEKCEWDPWTCEHMPVRLE
modifications: not fully specified; cysteine pairing not given here
B34: Con4-C4 (C) (peptide)
chain: M[Fc(4)]GGGGGAQTTIGSMCQWDPWTCEHMQGGLE
modifications: not fully specified (bridges); cysteine pairing not given here
B35: Con4-36 (C) (peptide)
chain: M[Fc]GGGGGAQKSGQVECNWDPWTCEHMPRNLE
modifications: not fully specified; cysteine pairing not given here
B36: Con4-38 (C) (peptide)
chain: M[Fc]GGGGGAQPRLQEECVWDPWTCEHMPLRLE
modifications: not fully specified; cysteine pairing not given here
B37: Con4-20 (C) (peptide)
chain: M[Fc(7)]GGGGGAQQVIGRPCEWDPWTCEHLEGLLE
modifications: not fully specified (bridges); cysteine pairing not given here

Biological target: T1, human Ang-2
Assay: competition ELISA vs Tie-2

Row | IC50 | Binder
1 | 0.75 nM | B1
2 | > 1000 nM | B2
3 | 0.22 nM | B3
4 | 0.41 nM | B4
5 | 4.8 nM | B5
6 | 2.47 nM | B6
7 | 0.16 nM | B7
8 | > 1000 nM | B8
9 | 282 nM | B9
10 | 9.7 nM | B10
11 | 15 nM | B11
12 | 0.28 nM | B12
13 | > 1000 nM | B13
14 | 0.19 nM | B14
15 | > 1000 nM | B15
16 | 150 nM | B16
17 | > 1000 nM | B17
18 | 5.76 nM | B18
19 | > 1000 nM | B19

Row | IC50 | Binder
20 | 3.75 nM | B20
21 | > 1000 nM | B21
22 | 0.12 nM | B22
23 | > 1000 nM | B23
24 | 20.1 nM | B24
25 | 0.52 nM | B25
26 | > 1000 nM | B26
27 | 0.3 nM | B27
28 | 0.26 nM | B28
29 | 0.38 nM | B29
30 | 1.2 nM | B30
31 | > 1000 nM | B31
32 | 0.18 nM | B32
33 | 0.26 nM | B33
34 | 9.8 nM | B34
35 | 0.28 nM | B35
36 | 0.4 nM | B36
37 | 0.48 nM | B37
